The record followed here is a protein production outcome set (Wang et al. 2014).

A short description of the series: label from the status in PepcDB records.
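Note: failed if final PepcDB status was selected cloned or expressed and not failed if soluble or beyond.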

Consider “KWLDYDFTSLRKEILDKAFQKSLTQINWIMGGYYLVMESLSFFEYEQSIQSKTVRHLILVFYLLFFMGVIKKLDTYLKEKLYERLEQEQALRYRDMERYSRHIEELYKEVRSFRHDYTNLLTSLRLGIEEEDMEQIKEVYGSVLKDSSQKLQNNKYDLGRLVNIRDKALKSLLAGKFLKARDKNIVFNVEVPEEIQVEGMSLLDFLTIVSILCDNAIEASVEASQPHVSIAFLKNGAQETFIIENSIKEEGIDISEIFSFGASSKGEERGVGLYTVMKIVESHPNTSLNTTCQNQVFRQVLTVIHTE”, for which the protein production entry was “failed”. The entry for “LADVKHAQSQALFKEHMLETIFNAIPDLFFLMEVDGMIVDYHTGDQKNLYVAPHQFIGKRMTDLLPQEVVSKFQTHVDKILQQEGMITFEYELTMPHGLVHFEARMSYLPEYNQIVLIIRDIS” is “failed”; for “LAEKAGIGVWSYEPETQRIDWAPDALALMGVSPEDIATPELFLARLPENHRAEVQAAFVHAARTGEGGTLEYRLRANDGRWFTLRATYRTEARPGSGFALKGVSQNITDVARS” it is “failed”; for “LDALRRYHRQTLQELPMGVCSLAKDQEILMWNKAMEELTGIPAQHVVGSRLSTITNPWKDLLQGFINLPDEHLHKQHLALDGQTRWLNLHKAAIDEPLAPGNSGLVLLVEDLTETQTLEDKLVHSERLASIGRLAAGVAHEIGNPITGI” it is “failed”. Regarding “LDHITVVTADGKVALNQIGQISMKSPQVILVNMASFPECTAAAIKAIRESGMNLNPEVEGTLIRVPIPKVT”, the protein production result was “not failed”.

Regarding “LDLQIIMDDLLNLLLKEFKLDLAVIRLVDEKGVLRVRSYSGKGIAGIAGKDWEPEIETYIGEAFLSNRLQFVNDTQYMTKPLTRELMQKEGIKSFAHIPISRKGEPPFGILSVFSRTIVGLFNEPFLNLLESLAGQLAQAVKIVTEMEAKEREREEKERILLENARVVKEMEIAKQIQLSLLPSAPPTLPRH”, the protein production entry is “failed”. “LDPGLQPGQFSADEAGAQLFAQSYQSSAEQVLFQSVAASWAHDTNITAENARRQEEAALLSQEFAEAWGQKAKELYEPIWQQFTDPQLRRIIGAVRTLGSANLPLAKRQQYNALLSQMSRIYSTAKVCLPQKTATCWSLDPDLTNILASSRSYAMLLFAWEGWHNAAGIPLKPLYEDFTALSNEAYKQDGFTDTGAYWRSWYNSPTFEDDLEHLYQQLEPLYLNLHAFVRRALHRRYGDRYINLRGPIPAHLLGDMWAQSWENIYDMVVPFPDKPNLDVTSTMLQQGWQATHMFRVAEEFFTSLELSPMPPEFWEGSMLEKPADGREVVCHASAWDFYNRKDFRIKQCTRVTMDQLSTVHHEMGHIQYYLQYKDLPVSLRRGANPGFHEAIGDVLALSVSTPEHLHKIGLLDRVTNDTESDINYLLKMALEKIAFLPFGYLVDQWRWGVFSGRTPPSRYNFDWWYLRTKYQGICPPVTRNETHFDAGAKFHVPNVTPYIRYFVSFVLQFQFHEALCKEAGYEGPLHQCDIYRSTKAGAKLRKVLRAGSSRPWQEVLKDMVGLDALDAQPLLKYFQLVTQWLQEQNQQNGEVLGWPEYQWHPPLPDNYPEGIDLVTDEAEASKFVEEYDL”: the protein production entry was “not failed”. In the case of “LDVGCNQGGFLRKLYDTTPFKEGVGIDLARLSLEKAETLKGERPLTYYLTDKPQETNRTFDTAVSTSVLYLIEDIPQHAQDLKEVLKPGGVYYASFADLTNNPSRQFMDDTINQYGATPSQNHSLKHIVDSFVDAGFEVAVMKEPVPDVIDLTHYSDFYLSPNDYLQTLYEESFLIKASVKEGIGK”, the protein production result was “failed”. For the sequence “LEAPRDLEAKEVTPRTALLTWTEPPVRPAGYLLSFHTPGGQTQEILLPGGITSHQLLGLFPSTSYNARLQAMWGQSLLPPVSTSFTTGGLRI”, the protein production result is “not failed”. The result for “LEEFKNSSKLVAAAEKERLDKHLGIPCNNCKQFPIEGKCYKCTECIEYHLCQECFDSYCHLSHTFTFREKRNQKWRSLEKRADEV” reads “not failed”; that for “LEIKQLLNIYRDLQLGHFCAFYQPQKHIDSGGVVAFEALARRVIGKGLYEMPDRFFPILEKYHLIPTLTEVMVRDILTFLMTEDAVLQDITIGVNIPGKMLTDGSFYRLLLSVAEEKQAQHALHRLSVEITEHDLIADFDAAKHEIYKLKSLGIRCALDDFGTGYSGYEYLCEIPFDVVKIDGRYIQSLGKAESSTVILQSMISSIKSLSMQVIAEWVDSDQQYQILQEMGCDLVQGYLVSPAISPQQVLNYLHNKLSP”, “failed”.

For the sequence “LERDEQIRLQDDFLFRSQFNIGNIGIAITGIDQKWIKVNPRLCQMLKYSEDELLHMTWKQLTHPDDLDADVAKFEQMLAGNIDNYELDKRFIAKNGSLVYTHMTVACKRTNHQVLLVISGYLDVTAQTLADRE”, the protein production entry is listed as “failed”. For “LERMVQTRRGLEIIIDAASTLYDFKSMQRLAEGVLTQLASLLNVDCAGILVLRDAGDELAVLAGSGCYSRFIGTTGHSNSLDPDLRQMVEEAFRRRKHEFADHRTVLYIRTGSGREVVVLLQAERELSDTDRSLVEIFGSRLSIAFDNVILYRQLHEANTQ”, the protein production result is “failed”.

Turning to “LEVLVKTLDSQTRTFIVGAQMNVKEFKEHIAASVSIPSEKQRLIYQGRVLQDDKKLQEYNVGGKVIHLVERAP”, the protein production entry is “not failed”. The entry for “LFSDASGEQRLQKIIGQIKKDGSGKDYDCIIGLSGGVDSSYLAVKVKDLGLRPLVVHVDAGWNSELAVSNIEKIVKYCGFDLHTHVINWEEIRDLQLAYMKAAVANQDVPQDHAFFASMYHFAVKNNIKYILSGGNLATEAVFPDTWHG” is “failed”; for “LFTESAKAVLAIAQEEAKYFRHQSVGSEHLLLALVLEPNGIAGKTLRQLNTDTEDIREEIEHLSGYGTMQSPMGNNNLYLPYSPRAKQIFAYAGDEAKRLGAQKIGTEHLLLGLLRDEEILASRILVNLGLSLSKMRQLLLKKMG” it is “failed”; for “LGINEISSSFFSLLLEILLLESQASLPMLEERVLDWQSSPASSLNSWFSAAPNWAELVLPALQYLAGESRAVPSSFSPFVEFKEKTQQWKLLGQSQDNEKELAALFQLWLETKDQAFCKQENEDSS” it is “not failed”. “LKGEPDCYALSLESSEQLTLEIPLNDSGSAGLGVSLKGNKSRETGTDLGIFIKSIIHGGAAFKDGRLRMNDQLIAVNGETLLGKSNHEAMETLRRSMSMEGNIRGMIQLVILRR”: the protein production entry is listed as “not failed”.

As for “LLLLHGFTSHPVLTLGPLSERLKEAGWEVRQPALPGHGTRPEDLLKVRFQDWLLAAEEAYLELPEPRGVVGLSMGGLLAAHLAARHPTKALVALAPAFALKNPLAPYLHWLIPRFPGPPSIEDPELRKRNPNYPYFPTRAVLELLALMRKTPEVLPRVKARALVVEAGKDRVVKGVDRYFALLGSPRKDHLVFPESGHDLLLDRDREEVARAVRDWL”, the protein production result was “failed”. Regarding “LLTRQLEKSRQQQQLMVAIALIIRQSLKLEDILSVTVAEVRQFLQADRVLIYQFQPDMSGIVVAESILPGWIATKGAQIEDKCFQDSAGHNHQLKKRAINDIYQAGLTNCYLELLEQFQVKATLIVPIMVTNKSWGLLIAHQCAAPHHWQSFELDLLEQLAVQIAIAIQQASAYEQIQTELQERKRVEATLRESEQRFRQMADTAPVLIWMSGL”, the protein production entry is “failed”. With “LPKLREDFKMQNKSVFILGASGETGKVLLKEILGQNLFSKVTLIGRRKLTFEEEAYKNVNQEVVDFEKLDVYASAFQGHDVGFCCLGTTRSKAGAEGFVRVDRDYVLKSAELAKAGGCKHFNLLSSRGADKSSSFLYLQVKGEVEAKVEELKFDRLSVFRPGVLLCDRQESRPGEWLARKFFGSLPDSWASGYAVPVVTVVRAMLNNLVSPSSGQMELLENKAILHLGKDRDVPKL”, the protein production entry is “not failed”. Take “LPKPGVYYFPWEVSDGHVPEGSTLRTFGRLYLYDMARSLMTLAAPQKPDQCQLLVCTNLVEPFEAHVNFLYMVLGDLERMEGGAFVVRARLLTCVEGMDLSLLEKAILEQRRHLQKRQQPIGDASTLQTPTPAPQSIPSDSLSLEPENRG”: the protein production result is given as “failed”. Take “LRETEARLQRLADNLPGMLYEFCLKPDGTMTFPYVSSGCLELIECSPQELQDDASLTFASTYPEDIIGLQEAIANSAKTLQNFEHEWRIITSSGQLKWVKGASRPERKPGGEITWYGYLLDVSEQQAALRERKQADQQ”: the protein production result was “not failed”.
